Data published in US8247168B2, “Regulation of gene expression by protein methylation” (University of Southern California, priority 1998, dated 2012).

Experiments:
histone H3 = biological target: T1, histone H3 (Bos taurus, UniProt P68432); assay: Identification of methylated amino acids in histone H3 by thin layer chromatography of the hydrolyzate; format: biochemical, calf; details: histone H3 methylated by CARM1, thin layer chromatography
T1 construct: A 3.2-kb partial CARM1 cDNA clone with an open reading frame of 606 amino acids (CARM1(3-608)); purchased Boehringer Mannheim; host or cells: histone H3 from calf thymus; GST-CARM1 made in E. coli BL21
Description: Histone H3 was incubated for 60 min at 30° C. in a 100 μl methylation reaction as described in FIG. 8, containing 0.024 mg/ml GST-CARM1 and 0.63 mg/ml H3. The reaction was stopped with 25 μl of 3% (v/v) trifluoroacetic acid (TFA), 15% (v/v) acetonitrile, and 100 μl was injected into a 3 cm×4.6 mm RP-300 reversed-phase guard column (Perkin Elmer-Brownlee) equilibrated with 80% solvent A (0.3% TFA in water) and 20% solvent B (0.3% TFA in acetonitrile). Methylated H3 was separated from unreacted S-adenosylmethionine using a gradient of 20-80% solvent B over 5 min at a flow rate of 1.0 ml/min. H3 eluted as a broad complex peak detected by monitoring absorbance at 214 nm. The H3 pool was reduced to dryness in a vacuum centrifuge and then subjected to acid hydrolysis in 6 N HCl at 112° C. for 20 h. […] Radioactivity in the fractions was determined by liquid scintillation counting, and peak identity was determined by comparison to derivatized standards including the three major forms of methylarginine and methyllysine. […] Radioactive spots corresponding to the positions of the three forms of methylarginine (which all separated from each other) were removed by scraping the chromatogram, and quantified by liquid scintillation counting. […]

[1] = tested on: androgen receptor, estrogen receptor, and thyroid hormone receptor; assay: Reporter gene activation by hormone-activated nuclear receptors in transiently transfected CV-1 cells; format: cell-based; details: co-expression of CARM1 with the NR and GRIP1, over NR+GRIP1 (lane e)
Description: (A) Transient transfection assays with CV-1 cells were performed as in FIG. 5 with 0.5 μg of GK1 reporter gene and 0.5 μg of each of the indicated vectors. (B) CV-1 cells were transiently transfected as in FIG. 5 with the following vectors, as indicated: 0.5 μg of nuclear receptor expression vector pSVAR0 (Brinkmann, A. O. et al. (1989) J. Steroid Biochem. Molec. Biol. 34:307) expressing AR, pHE0 (Green, S. et al. (1988) Nucleic Acids Res. 16:369) expressing ER, or pCMX.hTRβ1 (Feng, W. et al. (1998) Science 280:1747) expressing TR; 0.5 μg of a luciferase reporter gene with an appropriate promoter, MMTV promoter for AR, or MMTV promoter with the native glucocorticoid response elements replaced by a single estrogen response element for ER or palindromic thyroid hormone response element for TR (Umesono, K. and R. M. Evans (1989) Cell 57:1139); 0.5 μg of pSG5.HA-GRIP1; and 0.5 μg of pSG5.HA-CARM1 or pSG5.HA-CARM1 (VLD mutant). Transfection efficiency was monitored by using βgalactosidase activity expressed from 0.1 μg of co-transfected pCMV-βgal vector (Hong, H. et al. (1996) Proc. Natl. Acad. Sci. USA 93:4948-4952) as an internal control. After transfection, cells were grown in charcoal-treated serum; where indicated 20 nM hormone (H), i.e. dihydrotestosterone for AR, estradiol for ER, or triiodothyronine for TR, was included during the last 40 h of culture. […]

- radiolabel migrating with N^G,N^G-dimethylarginine (histone H3): approximately 70%
- radiolabel migrating with N^G-monomethylarginine (histone H3): 30%
B1: CARM1: novel murine protein arginine methyltransferase and transcriptional coactivator, 608 amino acids (protein, listed as Mus musculus)
chain: MAAAAATAVGPGAGSAGVAGPGGAGPCATVSVFPGARLLTIGDANGEIQRHAEQQALRLEVRAGPDAAGIALYSHEDVCVFKCSVSRETECSRVGRQSFIITLGCNSVLIQFATPHDFCSFYNILKTCRGHTLERSVFSERTEESSAVQYFQFYGYLSQQQNMMQDYVRTGTYQRAILQNHTDFKDKIVLDVGCGSGILSFFAAQAGARKIYAVEASTMAQHAEVLVKSNNLTDRIVVIPGKVEEVSLPEQVDIIISEPMGYMLFNERMLESYLHAKKYLKPSGNMFPTIGDVHLAPFTDEQLYMEQFTKANFRYQPSFHGVDLSALRGAAVDEYFRQPVVDTFDIRILMAKSVKYTVNFLEAKEGDLHRIEIPFKFHMLHSGLVHGLAFWFDVAFIGSIMTVWLSTAPTEPLTHWYQVRCLFQSPLFAKAGDTLSGTCLLIANKRQSYDISIVAQVDQTGSKSSNLLDLKNPFFRYTGTTPSPPPGSHYTSPSENMWNTGSTYNLSSGVAVAGMPTAYDLSSVIAGGSSVGHNNLIPLANTGIVNHTHSRMGSIMSTGIVQGSSGAQGGGGSSSAHYAVNNQFTMGGPAISMASPMSIPTNTMHYGS
- further enhancement of reporter gene expression [1]: 2 to 4 fold
